Experimental data: PMC8805214, “Crystal structure of betaine aldehyde dehydrogenase from Burkholderia pseudomallei” (Acta Crystallographica. Section F, Structural Biology …, 2022)

Biological target: the molecule itself
Experiment: crystal structure

B1: betaine aldehyde dehydrogenase from Burkholderia pseudomallei (enzyme)
chain: MSVYGLQRLYIAGAHADATSGKTFDTFDPATGELLARVQQASADDVDRAVASAREGQREWAAMTAMQRSRILRRAVELLRERNDALAELEMRDTGKPIAETRAVDIVTGADVIEYYAGLATAIEGLQVPLRPESFVYTRREPLGVCAGIGAWNYPIQIACWKSAPALAAGNAMIFKPSEVTPLSALKLAEIYTEAGVPAGVFNVVQGDGSVGALLSAHPGIAKVSFTGGVETGKKVMSLAGASSLKEVTMELGGKSPLIVFDDADLDRAADIAVTANFFSAGQVCTNGTRVFVQQAVKDAFVERVLARVARIRVGKPSDSDTNFGPLASAAQLDKVLGYIDSGKAEGAKLLAGGARLVNDHFASGQYVAPTVFGDCRDDMRIVREEIFGPVMSILSFETEDEAIARANATDYGLAAGVVTENLSRAHRAIHRLEAGICWINTWGESPAEMPVGGYKQSGVGRENGITTLEHYTRIKSVQVELGRYQPVF
notes: also called BpBADH; BpBADH-His; not shown: His6, C-terminal, kept
  binding result: binds
